This test has as its target HAUSP TRAF domain (HAUSP^62-205) (human), Q93009. Put plainly: ITC, titration against the HAUSP TRAF domain, 20 C.

The text below walks through data of US20180201654A1, “PEPTIDE INHIBITORS OF HAUSP DEUBIQUITINASE” (priority 2012, published 2018).

HAUSP TRAF domain (HAUSP^62-205) (human), Q93009, sequence (Q93009 62-205): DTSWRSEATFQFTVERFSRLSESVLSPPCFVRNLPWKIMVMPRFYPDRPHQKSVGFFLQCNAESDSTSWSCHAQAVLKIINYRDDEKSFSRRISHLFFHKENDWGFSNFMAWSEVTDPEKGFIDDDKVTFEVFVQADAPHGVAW

Consider EQGPADDPGEGPSTG (modifications not checked) [EBNA1^435-449 peptide], for which the Ka was 2.1e+06 M⁻¹; the Kd – broadly, the equilibrium constant for the complex coming apart – is 480 nM; the TΔS was -8.69 kcal/mol; the n is 0.81. In addition, the ΔG was -8.48 kcal/mol and the ΔH was -17.2 kcal/mol.

Molecule EGASTSGM (modifications not checked) [vIRF4^209-216 peptide] registered a Ka of 100000 M⁻¹, a TΔS of -10.3 kcal/mol, a n of 0.81 and a ΔG of -6.74 kcal/mol. Further, the ΔH was -17.1 kcal/mol.
